Measurements reported in PMC8191756.

Assays:
SENP1 = SENP1 (UniProt Q9P0U3); test: co-IP; details: reference: wild type
UBC9 = UBC9 (UniProt P63279); test: co-IP, Strep-ALKBH5 with Flag-UBC9; details: reference: wild type

Row | Substance | binding against the reference (SENP1; sites S87) | binding against the reference (UBC9; sites S87) | binding against the reference (SENP1; sites S325) | binding against the reference (UBC9; sites S325)
1 | ALKBH5 (from UniProt Q6P6C2) S87A | stronger | weaker |  | 
2 | ALKBH5 (from UniProt Q6P6C2) S325A |  |  | stronger | weaker
